Assays:
[1] = target: epidermal growth factor receptor (human (endogenous in MDA-MB-231)) (UniProt P00533); assay: flow cytometry on cells
[2] = target: epidermal growth factor receptor (human (endogenous in MDA-MB-231)) (UniProt P00533); assay: radioligand binding

## recombinant domain III (DIII) of the laminin-5 γ2-chain (domain or fragment)
[1]
  fluorescence, fold over control, at saturation: 12 fold
[2]
  IC50 2 (two-site competition, site 2): 1180 nM

Source: article PMC2172889
